Results: paper doi:10.1101/2023.07.10.548257 (bioRxiv, 2024)
One block for each compound: values may come before it.

Legend:
[1] = biological target: T1, SHP2 N-SH2^T42A domain (Homo sapiens, UniProt Q06124, T42A); assay: Direct fluorescence polarization binding, N-SH2 T42A; details: direct fluorescence polarization with fluorescent peptide
T1 construct: SHP2 SH2 domains were cloned into a His6-SUMO-SH2-Avi construct; His6-SUMO (N, cleaved yes); made in house; host or cells: E. coli C43(DE3), co-expressed with BirA
T1 sequence (Q06124 6-102 T42A limits assumed): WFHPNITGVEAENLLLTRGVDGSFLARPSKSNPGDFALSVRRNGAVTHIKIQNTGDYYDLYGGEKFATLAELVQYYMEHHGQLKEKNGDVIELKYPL
Protocol: Fluorescence polarization binding assays
SH2 domains were thawed in room temperature water and their absorbance at 280 nm was measured to determine concentration. SH2 domains were serially diluted 15 times in assay buffer (60 mM HEPES pH 7.2, 75 mM KCl, 75 mM NaCl,1 mM EDTA, 0.05% Tween-20), with a 2x starting concentrations generally in the low micromolar range. […] The […]
fluorescent peptide was diluted to 2x the desired concentration and mixed in 1:1 ratio with the different concentrations of SH2 domain (specific fluorescent peptide concentrations can be found in Table S2).
The mixture was transferred to a black 96-well plate and incubated for 15 minutes at room temperature. Parallel and perpendicular measurements were taken using the 485/30 polarization cube on the BioTek Neo2 Plate Reader. Data was analyzed and fitted to a quadratic binding equation to determine the KD for the fluorescent peptide, according to previously established methods (2, 3). […]
P-values comparing affinities for different SH2 domains were calculated using an unpaired Welch’s t-test. […]
Right before starting the plate reader assay, 30 μL SHP2 was added to each well a Supplementary Information - page 4 of 18

[2] = biological target: SHP2 N-SH2 domain, wild type (N-SH2-Avi-biotin) (UniProt Q06124); assay: peptide display screen (pTyr-Var Library); details: N = 2 independent library transformations and screens, read off a plot
[3] = biological target: ALDH2 pTyr 502 E504K peptide FGLQA-pY-TKVKT; assay: peptide display screen (pTyr-Var Library); details: N = 2 independent library transformations and screens; parent: est. 1.3; read off a plot
[4] = biological target: MERTK pTyr 872 I871V peptide QADVV-pY-VNTQL; assay: peptide display screen (pTyr-Var Library); details: N = 2 independent library transformations and screens; parent: est. 1.0; read off a plot
[5] = biological target: MLH1 pTyr 293 L292P peptide THPFP-pY-LSLEI; assay: peptide display screen (pTyr-Var Library); details: N = 2 independent library transformations and screens; parent: est. 2.9; read off a plot

Compound: CC[C@H](C)[C@H](NC(=O)[C@H](Cc1ccc(OP(=O)(O)O)cc1)NC(=O)[C@H](CC(N)=O)NC(=O)[C@H](CC(C)C)NC(=O)CNC(=O)[C@H](CC(N)=O)NC(=O)[C@H](CCC(=O)O)NC(=O)CCCCCNC(=S)Nc1ccc2c(c1)C(=O)OC21c2ccc(O)cc2Oc2cc(O)ccc21)C(=O)N[C@@H](CC(=O)O)C(=O)N[C@@H](CC(C)C)C(=O)N[C@@H](CC(=O)O)C(=O)N[C@@H](CC(C)C)C(N)=O
tighter binding of N-SH2^T42A compared to N-SH2^WT [1]: 5 fold

Compound: MERTK pTyr 872 peptide QADVI-pY-VNTQL I871V
enrichment (fselected / finput) ([2]; parent: est. 1.0): 1

Compound: MLH1 pTyr 293 peptide THPFL-pY-LSLEI L292P
enrichment (fselected / finput) ([2]; parent: est. 2.9): 1.4

Compound: Sm1; MERTK pTyr 872 peptide QADVI-pY-VNTQL N-SH2: T42A; MERTK peptide: I871V
enrichment (fselected / finput) [4]: 3.8

More lines, now with the values ahead:

enrichment (fselected / finput) ([2]; parent: est. 1.0): 1.5
Compound: MERTK pTyr 872 peptide QADVI-pY-VNTQL I871T

enrichment (fselected / finput) [3]: 1.8
Compound: Sm1; ALDH2 pTyr 502 peptide FGLQA-pY-TEVKT N-SH2: T42A; ALDH2 peptide: E504K

enrichment (fselected / finput) [5]: 8.6
Compound: Sm1; MLH1 pTyr 293 peptide THPFL-pY-LSLEI N-SH2: T42A; MLH1 peptide: L292P
